From ChEMBL document CHEMBL1145519, “Exploitation of structural and regulatory diversity in glutamate racemases” (Nature, 2007)
Positions count from the first letter of the chain named. Names may count otherwise.

Tests used:
[1] = substrate: N[C@@H](CCC(=O)O)C(=O)O; test: (§1) Activity of Enterococcus faecalis MurI
[2] = substrate: N[C@H](CCC(=O)O)C(=O)O; test: as §1
[3] = substrate: N[C@@H](CCC(=O)O)C(=O)O; conditions: Helicobacter pylori
Description: Activity of Helicobacter pylori MurI

[4] = substrate: N[C@H](CCC(=O)O)C(=O)O; conditions: Helicobacter pylori
Description: Activity of Helicobacter pylori MurI

[5] = substrate: N[C@@H](CCC(=O)O)C(=O)O; conditions: Helicobacter pylori; remark: listed apart in the source
Description: (§2) Activity of Helicobacter pylori MurI A75T mutant

[6] = substrate: N[C@H](CCC(=O)O)C(=O)O; conditions: Helicobacter pylori; remark: listed apart in the source
Description: as §2

[7] = substrate: N[C@@H](CCC(=O)O)C(=O)O; conditions: Helicobacter pylori; remark: listed apart in the source
Description: (§3) Activity of Helicobacter pylori MurI E151K mutant

[8] = substrate: N[C@H](CCC(=O)O)C(=O)O; conditions: Helicobacter pylori; remark: listed apart in the source
Description: as §3

B1: Glutamate racemase (Enterococcus faecalis (strain ATCC 700802 / V583)), Q836J0 (protein)
chain: MSNQEAIGLIDSGVGGLTVLKEALKQLPNERLIYLGDTARCPYGPRPAEQVVQFTWEMADFLLKKRIKMLVIACNTATAVALEEIKAALPIPVVGVILPGARAAVKVTKNNKIGVIGTLGTIKSASYEIAIKSKAPTIEVTSLDCPKFVPIVESNQYRSSVAKKIVAETLQALQLKGLDTLILGCTHYPLLRPVIQNVMGSHVTLIDSGAETVGEVSMLLDYFDIAHTPEAPTQPHEFYTTGSAKMFEEIASSWLGIENLKAQQIHLGGNEND
Which results are given for B1?
Km [1]: 1200 µM; kcat [1]: 25 s⁻¹; Km [2]: 250 µM; kcat [2]: 11.7 s⁻¹

B2: Glutamate racemase (Helicobacter pylori (strain ATCC 700392 / 26695) (Campylobacterpylori)), P56068 (protein)
chain: MKIGVFDSGVGGFSVLKSLLKAQLFDEIIYYGDSARVPYGTKDPTTIKQFGLEALDFFKPHQIKLLIVACNTASALALEEMQKHSKIPVVGVIEPSILAIKRQVKDKNAPILVLGTKATIQSNAYDNALKQQGYLNVSHLATSLFVPLIEESILEGELLETCMRYYFTPLEILPEVVILGCTHFPLIAQKIEGYFMEHFALSTPPLLIHSGDAIVEYLQQNYALKKNACAFPKVEFHASGDVVWLEKQAKEWLKL
With B2 as the protein, how does the Km [3] read?
Its Km is 740 µM.

And the kcat [3]?
Its kcat is 1.05 s⁻¹.

What about the Km [4] of the same protein?
Its Km is 63 µM.

And the kcat [4]?
The kcat was 0.2 s⁻¹.

B3: Glutamate racemase (Helicobacter pylori (strain ATCC 700392 / 26695) (Campylobacterpylori)), P56068 A75T (protein)
chain: B2 chain with A75T
For B3, which Km [5] is on record?
The Km was 7430 µM.

What about the kcat [5] of the same protein?
The kcat was 1.78 s⁻¹.

And the Km [6]?
Its Km is 275 µM.

And the kcat [6]?
Its kcat is 0.065 s⁻¹.

B4: Glutamate racemase (Helicobacter pylori (strain ATCC 700392 / 26695) (Campylobacterpylori)), P56068 E151K (protein)
chain: B2 chain with E151K
B4 was tested. Which Km [7] did it give?
Its Km is 7360 µM.

And the kcat [7]?
The kcat was 2.27 s⁻¹.

What about the Km [8] of the same protein?
Its Km is 282 µM.

What about the kcat [8] of the same protein?
The kcat was 0.0833 s⁻¹.
